Read-outs that look alike come from different tables or passages of the source.
Columns and labels:
4H883-bA = molecular target: T1, 4H883-bA; assay: two-hybrid library CCNG1;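 note: natural log of median RNA to DNA barcode read ratio; higher means stronger binding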
T1 chain: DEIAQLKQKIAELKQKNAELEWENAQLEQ

4H3855-bA = molecular target: T2, 4H3855-bA; assay: two-hybrid library CCNG1;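 note: natural log of median RNA to DNA barcode read ratio; higher means stronger binding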
T2 chain: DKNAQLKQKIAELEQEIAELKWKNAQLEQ

4H953-bA = molecular target: T3, 4H953-bA; assay: two-hybrid library CCNG1;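 note: natural log of median RNA to DNA barcode read ratio; higher means stronger binding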
T3 chain: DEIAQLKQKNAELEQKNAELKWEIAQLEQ

4H4001-bA = molecular target: T4, 4H4001-bA; assay: two-hybrid library CCNG1;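 note: natural log of median RNA to DNA barcode read ratio; higher means stronger binding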
T4 chain: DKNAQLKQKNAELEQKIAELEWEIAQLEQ

4H568-bA = molecular target: T5, 4H568-bA; assay: two-hybrid library CCNG1;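 note: natural log of median RNA to DNA barcode read ratio; higher means stronger binding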
T5 chain: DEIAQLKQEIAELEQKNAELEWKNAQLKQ

4H72-bA = molecular target: T6, 4H72-bA; assay: two-hybrid library CCNG1;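 note: natural log of median RNA to DNA barcode read ratio; higher means stronger binding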
T6 chain: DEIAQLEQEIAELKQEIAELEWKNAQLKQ

4H918-bA = molecular target: T7, 4H918-bA; assay: two-hybrid library CCNG1
T7 chain: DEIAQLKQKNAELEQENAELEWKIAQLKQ

4H454-bA = molecular target: T8, 4H454-bA; assay: two-hybrid library CCNG1
T8 chain: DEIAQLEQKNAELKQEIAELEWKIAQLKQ

4H607-bA = molecular target: T9, 4H607-bA; assay: two-hybrid library CCNG1
T9 chain: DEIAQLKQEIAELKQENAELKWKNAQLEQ

4H967-bA = molecular target: T10, 4H967-bA; assay: two-hybrid library CCNG1
T10 chain: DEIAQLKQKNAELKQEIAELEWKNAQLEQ

4H717-bA = molecular target: T11, 4H717-bA; assay: two-hybrid library CCNG1
T11 chain: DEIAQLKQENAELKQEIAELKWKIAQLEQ

4H908-bA = molecular target: T12, 4H908-bA; assay: two-hybrid library CCNG1
T12 chain: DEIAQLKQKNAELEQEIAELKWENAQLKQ

4H687-bA = molecular target: T13, 4H687-bA; assay: two-hybrid library CCNG1
T13 chain: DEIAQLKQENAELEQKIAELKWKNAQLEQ

4H797-bA = molecular target: T14, 4H797-bA; assay: two-hybrid library CCNG1
T14 chain: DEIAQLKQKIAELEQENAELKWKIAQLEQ

4H754-bA = molecular target: T15, 4H754-bA; assay: two-hybrid library CCNG1; conditions: mean of both orientations
T15 chain: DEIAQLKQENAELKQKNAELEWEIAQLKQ

4H483-AA = molecular target: T16, 4H483-AA; assay: two-hybrid library CCmax; conditions: mean of both orientations
T16 chain: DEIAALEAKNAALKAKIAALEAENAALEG

4H464-AA = molecular target: T17, 4H464-AA; assay: two-hybrid library CCmax; conditions: mean of both orientations
T17 chain: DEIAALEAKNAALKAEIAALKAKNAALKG

4H3414-AA = molecular target: T18, 4H3414-AA; assay: two-hybrid library CCmax
T18 chain: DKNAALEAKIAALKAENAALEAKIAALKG

4H3629-AA = molecular target: T19, 4H3629-AA; assay: two-hybrid library CCmax; conditions: mean of both orientations
T19 chain: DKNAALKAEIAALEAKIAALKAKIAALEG

4H3939-AA = molecular target: T20, 4H3939-AA; assay: two-hybrid library CCmax; conditions: mean of both orientations
T20 chain: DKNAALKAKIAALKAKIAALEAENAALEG

4H380-AA = molecular target: T21, 4H380-AA; assay: two-hybrid library CCmax; conditions: mean of both orientations
T21 chain: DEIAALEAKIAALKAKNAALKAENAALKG

4H3782-AA = molecular target: T22, 4H3782-AA; assay: two-hybrid library CCmax; conditions: mean of both orientations
T22 chain: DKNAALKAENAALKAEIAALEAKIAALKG

4H446-AA = molecular target: T23, 4H446-AA; assay: two-hybrid library CCmax; conditions: mean of both orientations
T23 chain: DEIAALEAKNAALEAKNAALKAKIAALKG

4H3969-AA = molecular target: T24, 4H3969-AA; assay: two-hybrid library CCmax
T24 chain: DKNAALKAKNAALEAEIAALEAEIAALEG

4H63-AA = molecular target: T25, 4H63-AA; assay: two-hybrid library CCmax; conditions: mean of both orientations
T25 chain: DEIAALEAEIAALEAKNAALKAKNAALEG

4H3595-AA = molecular target: T26, 4H3595-AA; assay: two-hybrid library CCmax; conditions: mean of both orientations
T26 chain: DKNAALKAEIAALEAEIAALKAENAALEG

4H432-AA = molecular target: T27, 4H432-AA; assay: two-hybrid library CCmax; conditions: mean of both orientations
T27 chain: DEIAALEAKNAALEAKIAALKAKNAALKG

4H341-AA = molecular target: T28, 4H341-AA; assay: two-hybrid library CCmax
T28 chain: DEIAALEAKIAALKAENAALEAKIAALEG

4H3777-AA = molecular target: T29, 4H3777-AA; assay: two-hybrid library CCmax; conditions: mean of both orientations
T29 chain: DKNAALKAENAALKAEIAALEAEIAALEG

4H3619-AA = molecular target: T30, 4H3619-AA; assay: two-hybrid library CCmax; conditions: mean of both orientations
T30 chain: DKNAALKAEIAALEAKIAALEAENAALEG

4H3449-AA = molecular target: T31, 4H3449-AA; assay: two-hybrid library CCmax; conditions: mean of both orientations
T31 chain: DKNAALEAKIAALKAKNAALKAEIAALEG

4H3974-AA = molecular target: T32, 4H3974-AA; assay: two-hybrid library CCmax; conditions: mean of both orientations
T32 chain: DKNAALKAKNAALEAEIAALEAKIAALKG

4H3915-AA = molecular target: T33, 4H3915-AA; assay: two-hybrid library CCmax; conditions: mean of both orientations
T33 chain: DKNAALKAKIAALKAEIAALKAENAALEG

B1: 4H3855-bA (peptide)
chain: DKNAQLKQKIAELEQEIAELKWKNAQLEQ
interaction score (4H883-bA): -1.04
interaction score (4H3855-bA): 0.372
interaction score (4H953-bA): -1.69
interaction score (4H4001-bA): 0.153
interaction score (4H568-bA): -0.231
interaction score (4H72-bA): 0.932
interaction score (4H918-bA): -1.43
interaction score (4H454-bA): -0.709
interaction score (4H607-bA): -0.96
interaction score (4H967-bA): -0.636
interaction score (4H717-bA): -0.336
interaction score (4H908-bA): -0.51
interaction score (4H687-bA): -0.551
interaction score (4H797-bA): -0.875
interaction score (4H754-bA): -1.21

B2: 4H3414-AA (peptide)
chain: DKNAALEAKIAALKAENAALEAKIAALKG
interaction score (4H483-AA): 0.796
interaction score (4H464-AA): 1.47
interaction score (4H3414-AA): -0.215
interaction score (4H3629-AA): 0.922
interaction score (4H3939-AA): -1.42
interaction score (4H380-AA): -0.842
interaction score (4H3782-AA): -1.23
interaction score (4H446-AA): -0.818
interaction score (4H3969-AA; mean of both orientations): -1.31
interaction score (4H63-AA): -0.187
interaction score (4H3595-AA): -1.09

B3: 4H341-AA (peptide)
chain: DEIAALEAKIAALKAENAALEAKIAALEG
interaction score (4H483-AA): 0.738
interaction score (4H464-AA): 0.352
interaction score (4H3414-AA; mean of both orientations): 0.22
interaction score (4H432-AA): -1.21
interaction score (4H341-AA): 1.84
interaction score (4H3629-AA): 2.2
interaction score (4H3939-AA): -1.29
interaction score (4H380-AA): -1.07
interaction score (4H3777-AA): -1.17
interaction score (4H3619-AA): -1.22
interaction score (4H3449-AA): 0.461
interaction score (4H3782-AA): 0.558
interaction score (4H3974-AA): 0.589
interaction score (4H446-AA): 0.795
interaction score (4H3969-AA): 0.0125
interaction score (4H63-AA): 1.74
interaction score (4H3595-AA): -1.29
interaction score (4H3915-AA): -1.31

Source: paper PMC10397247
